The subject of this series is PTB1 (polypyrimidine-tract-binding protein isoform 1). Nature of the series: filter binding.

The Kd is the equilibrium constant for the complex coming apart.

The substance EMCV 5'UTR RNA registered a Kd of 0.127 µM.

Take HCV 5'UTR RNA: the equilibrium dissociation constant (Kd) amounted to 0.242 µM.

These data come from article PMC9864772.
